Assay results from patent US20210290602A1.
Residue numbers refer to the chain shown, from its start. In names and notes the source's numbering stands. Each block holds one binder with its values, some of them ahead of it.

What was measured:
[1] = target: T1, purified recombinant CSPα^WT (E. coli, GST removed by TEV protease) (Homo sapiens (Human)), Q9H3Z4; assay: self-oligomerization of purified recombinant protein, SDS-PAGE and quantitative anti-CSPα immunoblot; conditions: remark: other sources report otherwise
T1 chain: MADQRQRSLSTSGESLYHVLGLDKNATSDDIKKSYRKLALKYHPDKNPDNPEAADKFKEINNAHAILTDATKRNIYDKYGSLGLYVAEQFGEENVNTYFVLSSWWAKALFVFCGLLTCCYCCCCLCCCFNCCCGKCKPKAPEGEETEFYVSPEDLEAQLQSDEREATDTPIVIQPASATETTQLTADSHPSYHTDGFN

[2] = target: T2, purified recombinant CSPα^L115R (E. coli, GST removed by TEV protease) (Homo sapiens (Human)), Q9H3Z4; assay: as above; conditions: remark: other sources report otherwise
T2 chain: T1 chain with L115R

percent of protein existing as oligomers [1]: 75%
B1: purified recombinant CSPα^WT (E. coli, GST removed by TEV protease), Q9H3Z4 1-198 (protein)
chain: T1 chain
modifications: here or on the partner: Fe-S clusters bound at the Cys-string of the E. coli protein. No palmitoylation in bacteria.; Fe-S clusters bound at the Cys-string of the E. coli protein. No palmitoylation in bacteria.

percent of protein existing as oligomers [2]: 75%
B2: purified recombinant CSPα^L115R (E. coli, GST removed by TEV protease), Q9H3Z4 1-198 (protein)
chain: T1 chain with L115R
modifications: here or on the partner: Fe-S clusters bound at the Cys-string of the E. coli protein.; Fe-S clusters bound at the Cys-string of the E. coli protein.
